Substrate in the data set: CC(=O)SCCNC(=O)CCNC(=O)[C@H](O)C(C)(C)COP(=O)(O)OP(=O)(O)OC[C@H]1O[C@@H](n2cnc3c(N)ncnc32)[C@H](O)[C@@H]1OP(=O)(O)O
Put plainly: purified protein, by the assay type. To be noted: other: Lineweaver-Burk analysis, partially purified recombinant TAX6.

This note sets out measurements from patent publication US7153676B1, “Transacylases of the paclitaxel biosynthetic pathway” (priority 1999, dated 2006).

B1: 10-deacetylbaccatin III-10-O-acetyl transferase (TAX6) (Taxus cuspidata) (protein)
chain: MAGSTEFVVRSLERVMVAPSQPSPKAFLQLSTLDNLPGVRENIFNTLLVYNASDRVSVDPAKVIRQALSKVLVYYSPFAGRLRKKENGDLEVECTGEGALFVEAMADTDLSVLGDLDDYSPSLEQLLFCLPPDTDIEDIHPLVVQVTRFTCGGFVVGVSFCHGICDGLGAGQFLIAMGEMARGEIKPSSEPIWKRELLKPEDPLYRFQYYHFQLICPPSTFGKIVQGSLVITSETINCIKQCLREESKEFCSAFEVVSALAWIARTRALQIPHSENVKLIFAMDMRKLFNPPLSKGYYGNFVGTVCAMDNVKDLLSGSLLRVVRIIKKAKVSLNEHFTSTIVTPRSGSDESINYENIVGFGDRRRLGFDEVDFGWGHADNVSLVQHGLKDVSVVQSYFLFIRPPKNNPDGIKILSFMPPSIVKSFKFEMETMTNKYVTKP
Usually Km stands for the concentration of substrate that gives half-maximal velocity. As to B1, the Michaelis constant (Km) was 8 µM.
